Source: the Human Domainome abundance scans (Beltran et al. 2025)

B1: Histone H1t, residues 44 to 112; numbered along this chain, P22492 (parent)
chain: VSKLITEALSVSQERVGMSLVALKKALAAAGYDVEKNNSRIKLSLKSLVNKGILVQTRGTGASGSFKLS

Variants of: B1
Assay: abundance fitness (aPCA) (normalised: wild type 0, dead -1); higher = more abundant; growth selection in yeast, the domain comes from the species named
Conditions: Homo sapiens

Abundance fitness of substitutions, site by site:
S44: H -0.126; R -0.173; Q -0.072; T 0.081; V 0.16; E 0.175; C 0.217; M -0.047; Y -0.279; I -0.239; A 0.324; F -0.298; W -0.426; N -0.148; P -0.636; L -0.108
L43: S 0.034; D 0.036; N 0.266; P -0.483; K 0.181; E 0.229; R 0.049; H 0.015; V -0.617; A 0.18; Q 0.172; G -0.061
L45: Q -0.782; H -1.2; G -0.574; P -0.46; F -0.372; E -0.978; A -0.643; M -0.386; R -0.915; C -0.425; K -0.859; V -0.141; T -0.63; W -0.125; N -0.897; I -0.417; S -0.742
N38: K -0.124; G -0.122; H -0.405; E -0.061; A 0.106; M 0.084; P -0.168; W 0.105; D -0.632; S 0.044; I -0.162; L 0.048; T 0.109; V 0.047; Q -0.058; R -0.393
K42: T -0.045; I 0.094; M 0.14; L 0.048; A -0.098; N -0.379; H -0.158; E 0.182; R -0.125; P -0.682; F -0.413; G -0.188; S -0.108; V -0.024; D -0.096; Y -0.138
A29: P -0.491; F -0.276; H -0.236; I -0.248; K 0.153; Q -0.081; E 0.066; W -0.323; G -0.223; S -0.039; C -0.088; R 0.002; V -0.215; D -0.085; L -0.255; M -0.097; T -0.04
S39: P -0.445; H -0.089; D -0.013; L -0.317; G -0.087; K -0.001; M -0.228; Q 0.075; R -0.327; F -0.594; C -0.675; E 0.148; N 0.075; V -0.539; Y -0.557; A -0.005; W -0.472
R40: H -0.094; T -0.085; G -0.372; V -0.396; S -0.404; K 0.128; L -0.097; N -0.165; E -0.036; A 0.091; M -0.215; Q 0.024; P -0.444
L27: V -0.202; S -0.746; W -0.371; T -0.696
L48: G -0.894; Q -0.643; N -0.775; H -0.979; K -0.939; A -0.755; D -0.405; C -0.589; E -0.784; R -0.864; F -0.404; P -0.873; I -0.564
N37: H 0.093; T -0.522; L -0.061; Y -0.289; R 0.077; V -0.161; D -0.397; I 0.148; F -0.178; P -0.173; W -0.083; S -0.013; M -0.45; A 0.244; G -0.091
I41: V -0.308; R -0.514; W -0.113; M -0.191; T -0.56; C -0.439; Q -0.556; N -0.542; L -0.124; F -0.055; D -0.742; G -0.405; Y -0.43; E -0.813; H -0.444; P -0.394
K46: P -0.841; C -0.628; N -0.489; A -0.01; V -0.197; W -0.418; T -0.209; G -0.875; M -0.23; L -0.178; I -0.129; R -0.053; D -0.329; E -0.053; Q -0.226; Y -0.895; H -0.35; S -0.332
A30: P -0.364; I -0.318; D -0.328; C -0.136; W -0.15; R 0.051; G -0.162; F -0.368; L -0.224; T -0.048; E -0.404; Q -0.137; N -0.271; Y -0.266; S -0.09; H -0.312; M 0.021; V -0.158
V34: G -0.306; C -0.179; T -0.068; S -0.199; Q -0.309; W -0.252; E -0.346; K -0.104; R -0.268; H -0.4; A -0.171; Y -0.472; P -0.212; I -0.123; L -0.214; M -0.098; D -0.327
K36: M -0.285; I -0.628; A -0.106; Y -0.362; D -0.387; L -0.358; S -0.25; P -0.62; H -0.432; R -0.106; N -0.019; W -0.626; V -0.46; E -0.428; C -0.556; Q -0.152; G -0.251; T -0.323
G31: Y -0.066; C -0.27; E -0.89; P -0.434; T -0.259; D -0.752; N -0.357; I -0.316; M -0.224; A -0.202; L -0.297; Q -0.268; W -0.387; R -0.306; V -0.149; F -0.285; S -0.264; H -0.366
S47: D -0.07; H -0.13; Q 0.02; L -0.228; C 0.036; R -0.087; Y -0.23; E 0.232; K -0.191; W -0.143; V -0.307; T 0.01; A -0.049; F -0.41; G -0.465; N -0.156; I -0.587; M -0.05
A28: L -0.087; Y -0.124; N -0.18; R 0.003; F -0.231; I -0.059; V -0.098; D -0.258; C -0.175; G -0.106; W -0.327; S -0.114; M -0.089; E -0.197
Y32: S -0.14; C -0.391; I 0.022; T -0.193; H -0.052; R -0.055; N -0.114; Q -0.121; K 0.064; P -0.228; F -0.072; W -0.116; L 0.032
E35: T -0.061; Y -0.036; Q -0.084; K 0.05; S -0.134; I -0.123; M -0.157; F -0.307; H -0.137; N -0.064; P -0.31
D33: Y 0.144; L -0.034; S -0.021; P -0.214; N -0.254; F 0.243; M 0.115; I -0.121; A 0.063; V 0.029; E 0.2; T -0.025; H 0.143; Q 0.042; R 0.036; W 0.259; K -0.119
